Measurements taken from the DeepSol protein solubility set.

Experiment: soluble on expression in E. coli; label from the status in PepcDB or PDB records

| Sequence | soluble on expression in E. coli |
| --- | --- |
| SLDGAHKMARVWVGILNWSLKHIVGLKYRIIGAENIPDRPAVICAKHQSGWETLALQDIFPPQVYVAKRELFKIPFFGWGLKLVKTIGIDRNNRREANEQLIKQGLVRKNEGYWITIFPEGTRLAPGKRGKYKLGGARMAKMFEMDIVPVALNSGEFWPKNSFLKYPGEITVVICPTIPHASGSEAELMEKCEHLIETQQPLISGAGPFAAKMPSETAEG | soluble |
| MATFVRNAWYVAALPEELSEKPLGRTILDTPLALYRQPDGVVAALLDICPHRFAPLSDGILVNGHLQCPYHGLEFDGGGQCVHNPHGNGARPASLNVRSFPVVERDALIWIWPGDPALADPGAIPDFGCRVDPAYRTVGGYGHVDCNYKLLVDNLMDLGHAQYVHRANAQTDAFDRLEREVIVGDGEIQALMKIPGGTPSVLMAKFLRGANTPVDAWNDIRWNKVSAMLNFIAVAPEGTPKEQSIHSRGTHILTPETEASCHYFFGSSRNFGIDDPEMDGVLRSWQAQALVKEDKVVVEAIERRRAYVEANGIRPAMLSCDEAAVRVSREIEKLEQLEAARLEHHHHHH | soluble |
| MQLTIKNKDLNTLYRVLDKIKITNMRANRGRAKLLAKVVDKINEYAKDETDLIDMYAAKDKDDKFVIDEHKNIKLADPAKLDELNDLLNELADEEIVIKGGEYSKRFIDFLNFLEECEDEFTSSEIILIDNILEQFEESKKGE | not soluble |
| MEAQNRIEDHGIIGDMRSAALIADTGSIDFCCWPDFDSPSIFTALLDTPDAGIFQLAPDLPDARRLQIYLPDTNVLQTRWIAEQAVVEVTDLMPIGEDQDDLPRIVRRVQVRFGEATIRMRCRVRMDYSRALEHHHHHH | not soluble |
| MGSDKIHHHHHHMNYTDTLKSVDLVLATGEVPLIIGESGIGKTALAKELAQQNQWSLVIINGNLLKEGEIGGLPTIESYVFSGPEAVNPLAATAAKTVGNEQGILQEKKSTVYAVHHKLREIDEAIARGQTVLLFIDEINRCEHTVQQELMNLILNREINGYILPEGVKILAAMNPSSKYGSDFDYQVVDMDAAQENRFVWLFMKPDHKQWIDWAIGAGIEPKVIEFISTFPDYLHKINEDDLRATPRSYERISSSYKIYQENKDSIPRSVFLNVVKGNVGRVIAEEFVNFAEADYSPLIAYDDIFSGTSLPESLRDKVKEESHTRLYLSARNILQTLESHLSKTPANAPDHAQSSMDRLVAFLKLYPVDLKIGIMKDIRSSYPEIYRQAIENEGFVDSYFESYGSLR | not soluble |
| HYTSVPNIMKVIKPLFLDKLNQSFLDAYDDYTKLENLLTRIGKIKFFDPACGSGNFLIITYKELRRMEINIIKRLQELLGEYLYVPSVTLSQFYGIEIEDFAHDVAKLSLWIAEHQMNEELKNEVHNAVRPTLPLHTAGDIRCANAIRVEWTEVCPAQGSEEVYVFGNPPYLGSKKQNKEHKSDMLSIFGKVKNGKMLDYISAWFYFGAKYASTTNAKVAFVSTNSVTQGEQVSILWNELFKFGI | not soluble |
| MPRGYKNPRVVPDNVERVISAYTPVPGTLAWGVVWEDPFAEFVRECARDLGLPATASDDVIRGNLRLIASFVAWVIHEYDCPLRRDEIFDYILAEAYAMSVIYVRDGHGKGTSNKVRGIRRSMLTKIGWKMNKHFGEPHKHTLPQEGALEPYKQWQLNKVDAWAGSQPNERRRRNARVAIALALGAGLRTSEIAGLTADDCEVTDSGMVLIHAPGYRGGEPRITVVDHRFEDTITDRLAELADLRAAGEPGQYLYCPHLLGRTTDMVNDYMKKKITSSGADCYLQPDLRRLRNTWITGHIKAGVEEGAICQAAGLKSLNQFRDLVDEAAKARAEQSYARLRGGEHRPVLRLVQG | not soluble |
| AESLPDLKIEKLDEGVYVHTSFEEVNGWGVVPKHGLVVLVNAEAYLIDTPFTAKDTEKLVTWFVERGYKIKGSISSHFHSASTGGIEWLNSRSIPTYASELTNELLKKDGKVQATNSFSGVNYWLVKNKIEVFYPGPGHTPDNVVVWLPERKILFGGCFIKPYGLGNLGDANIEAWPKSAKLLKSKYGKAKLVVPSHSEVGDASLLKLTLEQAVKGLNESKKPSKPSN | soluble |
| MFLFSELCRRLSPDAVRIVSDHRIVHLLTDSRTLSEPATTLFFALRTTSGDGHLYIRDLYDRGVRSFVISDPSKDLMEKMPQANWMRVAHPLDALQRIAALRRSMFDIPVIGITGSNGKTIVKEFLYQLLRKDYRIVRSPRSYNSQIGVPLSVWQMAEEHTLGIFEAGISQMGEMERLE | not soluble |
| GPGSMKALVRRFGPEPSVIEECSADQEWEKPCLASTEDTAVAPGDSVKDTRNNLSGSEGLANGRAESSQRAVDVSSFIRLFSVEWCLTEEQQAENSRRLDAFFHPHPAPPSCQPAPLLPSVQTCGETVDPDIWSLPEVSQEELQRWREEKLSLSDRLVWRGRKTIKQVNMRRM | not soluble |
| MTLYSFRLGLLLFCSLLFGCTAPTPAPVSGLGKDYNKVERGSYRGSYYEVKKGDTLYFIAYLTDKDVNDLISYNDLAPPYTIHPGQKIKLWLPNYTPPAYGGTGGAATVAVASSTSASVAKAATTATVAQTVSKSSNTKNVQNGSTNSQNLTKKDPVKTVDQTKTKEYVEPVGKQNVNVNVAKAKPSDEKIAKWLWPTKGRVIKNFSAGDQGNKGIDIAGQRGQAVVATADGTVVYSGNALRGYGNLIIIKHNEHYLSAYAHNDQLLAKEGQTVQAGQKIATMGSSGTNSVRLHFEIRYQGKSVNPKRYLP | not soluble |
| GPGSMTLYSIYIFNRYGDNIFYKEWNRTTAPQEGEAGLVAGFIYTLQHFSSQLSSSGEGGFYAVRTPLYKLHYNETMTGYRVALLSDKDLKTDVVQNILRKMFSDVFQRYVTKDPNYSHTQGRVITSTAFGEALDQFFHSQKIL | not soluble |
| STKTNVVEVLNKQVANWNVLYVKLHNYHWYVTGPHFFTLHEKFEEFYNEAGTYIDELAERILALEGKPLATMKEYLATSSVNEGTSKESAEEMVQTLVNDYSALIQELKEGMEVAGEAGDATSADMLLAIHTTLEQHVWMLSAFLK | soluble |
| RQANELPGAPSQEEAVIAFGKFKLNLGTREMFREDEPMPLTSGEFAVLKALVSHPREPLSRDKLMNLARGREYSAMERSIDVQISRLRRMVEEDPAHPRYIQTVWGLGYVFVPDGSKA | soluble |
| MDFYYLPGSAPCRAVQMTAAAVGVELNLKLTDLMKGEHMKPEFLKLNPQHCIPTLVDNGFALWESRAIQIYLAEKYGKDDKLYPKDPQKRAVVNQRLYFDMGTLYQRFADYHYPQIFAKQPANPENEKKMKDAVGFLNTFLEGQEYAAGNDLTIADLSLAATIATYEVAGFDFAPYPNVAAWFARCKANAPGYALNQAGADEFKAKFLS | soluble |
| MSLSDDLFAPQVPVEVANRRPLADRLRPKTLSEVSGQPHLTGEEGVLRRMIDSGSLGSMIFWGPPGTGKTTVARLLSGEAGLAFEQISAIFSGVADLKKVFEAARTRRMNGRQTLLFVDEIHRFNRAQQDSFLPVMEDGTIILVGATTENPSFELNAALLSRARVLTFGSHDEDSLSELLKRAEEAEGKPLPLTEEARASLLRMADGDGRAVLTLAEEVWRAARKDETFDTEGLTRIVQRRAPVYDKSQDGHYNLISALHKSVRGSDPDAALYYLARMFDAGEDPLYLGRRLVRMAVEDIGLADPQALAVCNAAKDAYDYLGSPEGELALAQACVYLATAPKSNAVYTAFKAAMRAAKENGSLVPPKHILNAPTKLMKGEGYGDGYRYDHDEPDAFSGQDYFPEKMGRTTFYDPPDRGFEREIRKRLDWWAKLRRERGEGHHHHHH | not soluble |
| MGSDKIHHHHHHMIGFDYGTSNCGVATMRNGQPHIIPLLGNESYIASNLYAPSRDVIANWLSQQLDSPQQANFIAERKAQLQKGQAALRELKFDGISSELLFGKSALAQYLEDPEEGYYIKSPKSFLGASGLATAQIQFFEDIVACMMSNVKNLTEQALQKEVTQTVIGRPINFQGLHGEESNRQAISVLTNAAKRVGFKDVEFQYEPVAAGFEFESSLTKETRVLVVDIGGGTSDCSMLLMSPDFTDNDNRNDHLLAHTGVRVAGNDFDIQLALQGIMPSFGMNSLLKTGKPMPTSSFYQALAINNINEQTEFYSAKNRRNLVQLSRDAKETAIIERLVAVHDHKLSYQLVNAAEQAKIALTEQSKQTIDLSDVTDGLCAEVTKETLRSANKRTLESIANIMQSAVQQAQCQPDVIFVTGGTAKSPVLSEFLQQQMPNVPIVVGDHFGSVTSGLARWAEKIYQ | not soluble |
| MTKAKDLTGKKIAILAADGVEEIELTSPRAAIEAAGGTTELISLEPGEIQSMKGDIEPQEKYRVDHVVSEVQVSDYDGLLLPGGTVNPDKLRLEEGAMKFVRDMYDAGKPIAAICHGPWSLSETGIAQGLKMTSWSSLKRELTLAGAQWVDEECVTDKGVVTSRKPDDLPAFNKKIVEEFAEGDHSSRRK | soluble |
| MLKFISLLGTSKYVPCNYFIKNREELKINDCCYVQKAILDILRQENVIPDKIIIFTTDEAHVSNWENNKWNNKGDKNDVQEIEDELQKRPGLKGELEKYKELTGADFKSVRIPNGIREEDLWEIFRTIFDEIDENDEIIFDVTHSFRYLPMLVFIVINYARVVKKCKLKSIYYGAFEVLGTPETVAKIPLEERNAPIFDLTSFVDLFDWTMGIDRYLNTGDVSVVHELTDIQIKRVNKEKLKFISKSEQGVDPKTLFMDSRQLRALSESMKNFSDVVFTCRGLELTRVACELKEKLREVTESASRQHIIPLMPVLEMMKERFDKFSKDNDYINIIETARWCADNKMYQQGLTILEEGLISFGCEKLGYENLSDKIDLDKRRKIGSYAFVVSNDFGRKSDNKKEKIPLLNIKSDVITDLLILIDEISSIRNDINHAGWRKDPSEAGAFGEQLKNFISRAEKIISPENFSTESDKCINNDSVDKEKKMLLILSHKLVPKQEEEARQRFGISKFLPMPNELHNKWSNIPPELEDLRDYLNDILEWIDLNAQEGDYALIQGDYGATFIAVNHCLAKGIIPVYSTTHRIVREEKNEDKVISVREFEHVILRKYEN | not soluble |
| MKLEYLIDQAAGQPKKTVAVAVAEDHEVIEAVAKAIKLQLAQFRLYGNQEKIMGMLQEHGLQTSEHVEVIAAMSSAEAAELSVKAVRNGEADVLMKGNIPTANILKAVLNKEWGLRKGSVLSHVAAFEVPNYDRLIFVTDAAMNIAPDVTQKAAIIQNTVEVARAIGIDLPKVAPIAAVEVVNPAMQATIDAAMLTQMNRRGQIKDCIVDGPLALDNAVSQIAAEHKGIVSDVAGKADILLVPTIEAGNVLYKSLVYFADAKVGAMIAGAKAPIVLTSRADSAETKVYSLALAVATASK | soluble |
| MGHHHHHHSHTKSARVKGLSFHPKRPWILTSLHNGVIQLWDYRMCTLIDKFDEHDGPVRGIDFHKQQPLFVSGGDDYKIKVWNYKLRRCLFTLLGHLDYIRTTFFHHEYPWILSASDDQTIRVWNWQSRTCVCVLTGHNHYVMCAQFHPTEDLVVSASLDQTVRVWDISGLRKKNLSPGAVESDVRGITGVDLFGTTDAVVKHVLEGHDRGVNWAAFHPTMPLIVSGADDRQVKIWRMNESKAWEVDTCRGHYNNVSCAVFHPRQELILSNSEDKSIRVWDMSKRTG | soluble |
| MGSDKIHHHHHHMIKVGQTTEVENFLSNHPEVEAIDVLISDLVGFARGKRIEKSSLEKIYSSGLNMPATIFSMNVLGETIEECGLGQDIGEPDMVCKPIANTLHMASWHDRPIAQVLMSMFNHDGTPFFADPRNILSNVVRQLAEINLYPVVAVELEFYLLDKNKDNKGNLQAPISPKTGKRDEHTQVYSVDTLNDYSALLDDINRVCIEQNVPADTAVAECAPGQFEINLKHEADPVAACDNAILLKRIIKTVADKHNFDATFMAKPYSNEAGSGMHVHASLLDECGNNVFADEHNDYNETLEHAIGGMLELMPASMPLLCPNVNSYRRFMPGYYVAMAKNWGVDNRTVALRLPRGHKNATRIEHRVSGADANPYLVMAVILASIHHGITNKIKPINPTVGNAFDDDCEALPLKLDRALAELEKDQILTSYLGEEFTKNYHTVKQKELEQFDMHISELEVKWYLSNS | not soluble |
